We go through one molecule from publication PMC4783296, “Structural basis underlying CAC RNA recognition by the RRM domain of dimeric RNA-binding protein RBPMS”.

In general, Kd refers to the equilibrium constant for the complex coming apart.

The target in data set [1] is RBPMS RRM F65A (human, UniProt Q93062 14-111, F65A). Put plainly: ITC; ITC: 20 mM Tris-HCl pH 7.5, 100 mM NaCl, 25 C; 0.03-0.05 mM protein in cell, 0.26-0.5 mM RNA in syringe, single-site model. The following applies: protein: recombinant; tags: 6His-SUMO removed with Ulp1; single strand.
Sequence of RBPMS RRM F65A (Q93062 14-111 F65A): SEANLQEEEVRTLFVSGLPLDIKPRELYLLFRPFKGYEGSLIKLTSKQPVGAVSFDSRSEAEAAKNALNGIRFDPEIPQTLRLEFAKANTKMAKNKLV
Data set [2] has as its target RBPMS RRM K100E (human, UniProt Q93062 14-111, K100E). The data set is described as above. The note with it: protein: recombinant; tags: 6His-SUMO removed with Ulp1; single strand.
In data set [3] the target is RBPMS RRM F27A (human, UniProt Q93062 14-111, F27A). The data set is described as above. The following applies: protein: recombinant; tags: 6His-SUMO removed with Ulp1; single strand.
Sequence of RBPMS RRM F27A (Q93062 14-111 F27A): as the sequence (Q93062 14-111 F65A) above, with F14A, A52F counted along it
For data set [4], the target named is RBPMS RRM T103A/K104A (human, UniProt Q93062 14-111, T103A;K104A). The data set is described as above. The note with it: protein: recombinant; tags: 6His-SUMO removed with Ulp1; single strand.
Sequence of RBPMS RRM T103A/K104A (Q93062 14-111 T103A/K104A): as the sequence (Q93062 14-111 F65A) above, with A52F, T90A, K91A counted along it
Data set [5] has as its target RBPMS RRM WT (human, UniProt Q93062 14-111). Put plainly: ITC; approaching 2:1 RRM:RNA; ITC: 20 mM Tris-HCl pH 7.5, 100 mM NaCl, 25 C; 0.03-0.05 mM protein in cell, 0.26-0.5 mM RNA in syringe, single-site model. The following applies: protein: recombinant; tags: 6His-SUMO removed with Ulp1; chain copies: 2; single strand. A general note: Isothermal titration calorimetry measures the heat released or taken up as one component is titrated into another.

Data set [6] deals with RBPMS RRM E97A/K100A (human, UniProt Q93062 14-111, E97A;K100A). Put plainly: ITC; Kd printed only in figure; ITC: 20 mM Tris-HCl pH 7.5, 100 mM NaCl, 25 C; 0.03-0.05 mM protein in cell, 0.26-0.5 mM RNA in syringe, single-site model. The note with it: protein: recombinant; tags: 6His-SUMO removed with Ulp1; single strand.
Sequence of RBPMS RRM E97A/K100A (Q93062 14-111 E97A/K100A): as the sequence (Q93062 14-111 F65A) above, with A52F, E84A, K87A counted along it

Sequence of RBPMS RRM WT (Q93062 14-111): as the sequence (Q93062 14-111 F65A) above, with A52F counted along it
Sequence of RBPMS RRM K100E (Q93062 14-111 K100E): as the sequence (Q93062 14-111 F65A) above, with A52F, K87E counted along it

For the molecule GCACUUUCAACUUCACU (ssRNA) [ETF1 17-nt RNA], the binding result in data set [1], in data set [2], in data set [3] and in data set [4] was “no binding” throughout. The Kd in data set [5] came to 900 nM. The binding signal in data set [6] is ~10 fold reduced affinity vs WT.
